What was measured:
[1] = target: YY1 cellular transcription factor, endogenous in LCLs (UniProt P25490); assay: co-immunoprecipitation (YY1 IP, EBNA-LP blot, band signal quantified); settings: 50% IP lanes; trans-complemented LPKO LCLs; parent: 1
[2] = target: YY1 cellular transcription factor, endogenous in LCLs (UniProt P25490); assay: co-immunoprecipitation (FLAG-EBNA-LP IP, YY1 blot, band signal quantified); settings: 50% IP lanes; LPKO LCLs (Donor 4) trans-complemented; parent: 1.0

UniProt P25490, sequence (P25490 whole entry): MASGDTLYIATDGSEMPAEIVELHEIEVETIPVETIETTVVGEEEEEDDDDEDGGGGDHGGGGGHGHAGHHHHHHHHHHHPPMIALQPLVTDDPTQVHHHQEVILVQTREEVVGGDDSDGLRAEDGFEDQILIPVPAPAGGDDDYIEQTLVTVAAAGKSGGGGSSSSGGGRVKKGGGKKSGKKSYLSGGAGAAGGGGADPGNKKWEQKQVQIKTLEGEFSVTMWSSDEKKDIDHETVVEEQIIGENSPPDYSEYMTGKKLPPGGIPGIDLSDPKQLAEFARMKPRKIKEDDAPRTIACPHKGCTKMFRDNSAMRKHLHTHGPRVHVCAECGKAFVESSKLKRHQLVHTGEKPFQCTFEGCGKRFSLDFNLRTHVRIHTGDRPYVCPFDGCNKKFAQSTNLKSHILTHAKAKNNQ

## FLAG-EBNA-LP wild type (B95-8) with four W domains, from the trans-complementation vector W:L25A; W:L28A; W:L29A (in each of the four W domains); Y:L13A; Y:L17A; Y:L18A
[1]
  response: 0
[2]
  response: 0.01

From paper PMC11318927
